The target of assay [1] is bt-MalE (Escherichia coli) [MBP: P0AEX9]. Put plainly: Biacore kinetics, bt-MalE on SA chip, buffer M2 (no reducing agent), heterogeneous analyte model, population 2 (kon2), taken as the non-coupled molecules of the L53ANBD preparation.
Assay [2] has the same target. Kind of assay: Biacore kinetics, bt-MalE on streptavidin SA chip, buffer M3 (5 mM DTT), 25 °C, Langmuir model. On the technique in general: Surface plasmon resonance follows binding to a sensor surface in real time, without labels.
Assay [3] shares this target. Put plainly: Biacore kinetics, bt-MalE on SA chip, buffer M2 (no reducing agent), heterogeneous analyte model, population 2 (kon2), taken as the non-coupled molecules of the N45ANBD preparation.
For assay [4] the target is unchanged. Kind of assay: Biacore kinetics, bt-MalE on SA chip, buffer M2 (no reducing agent), heterogeneous analyte model, population 2 (kon2), taken as the non-coupled molecules of the R23ANBD preparation.
Assay [5] has the same target. Put plainly: Biacore kinetics, bt-MalE on SA chip, buffer M2 (no reducing agent), heterogeneous analyte model, population 2 (kon2), taken as the non-coupled molecules of the T46ANBD preparation, possibly dimeric.

A word on the kon: it is a measure of how fast the partners come together. A high value points to fast association. DarpOff7(L53C) (designed binder): the results for the kon in assay [1] and in assay [2] were 580000 M⁻¹ s⁻¹ and 370000 M⁻¹ s⁻¹, respectively.
For DarpOff7(N45C) (designed binder), the values for the kon in assay [3] and in assay [2] were 240000 M⁻¹ s⁻¹ and 290000 M⁻¹ s⁻¹, respectively.
Turning to DarpOff7(R23C) (designed binder), the kon was 430000 M⁻¹ s⁻¹ in assay [4] and 410000 M⁻¹ s⁻¹ in assay [2].
Regarding DarpOff7(T46C) (designed binder), the kon was 18000 M⁻¹ s⁻¹ in assay [5] and 170000 M⁻¹ s⁻¹ in assay [2].

For the origin of these results see patent EP2103936A1.
